Experimental data from patent US9260500B2, “Peptide and use thereof” (Takeda Pharmaceutical Company Limited, priority 2009, dated 2016).
Starred links: 1 amine or outer side, 2 acyl side, 3 side chain; linkers in the order of their positions; H or OH if unused. Non-standard residues stand in square brackets, D forms with d. Ala(piperidin-4-yl) = O=C([C@H](CC1CCN([*:3])CC1)N[*:1])[*:2]; Arg(Me) = CNC(=N)NCCC[C@H](N)C(=O)O; hArg = N=C(N)NCCCC[C@H](N)C(=O)O; tBuAla = CC(C)(C)C[C@H](N)C(=O)O; 4Pal = N[C@@H](Cc1ccncc1)C(=O)O; dHyp = O=C(O)[C@H]1C[C@H](O)CN1; Cha = N[C@@H](CC1CCCCC1)C(=O)O; dIva = CC[C@@](C)(N)C(=O)O; Iva = CC[C@](C)(N)C(=O)O; Abu = CC[C@H](N)C(=O)O; Aib = CC(C)(N)C(=O)O

Experiments:
[1] = target: T1, human Y2 receptor (Homo sapiens, UniProt P49146); experiment: Receptor Binding Assay (RBA) for Human Y2, [125I]-PYY displacement on hY2R/CHO membrane fraction; conditions: IC50 of test compound/IC50 of PYY(3-36) (PYY(3-36) taken as 1)
T1 construct: expressed in transfected cells; membrane fraction
T1 sequence (P49146 1-381): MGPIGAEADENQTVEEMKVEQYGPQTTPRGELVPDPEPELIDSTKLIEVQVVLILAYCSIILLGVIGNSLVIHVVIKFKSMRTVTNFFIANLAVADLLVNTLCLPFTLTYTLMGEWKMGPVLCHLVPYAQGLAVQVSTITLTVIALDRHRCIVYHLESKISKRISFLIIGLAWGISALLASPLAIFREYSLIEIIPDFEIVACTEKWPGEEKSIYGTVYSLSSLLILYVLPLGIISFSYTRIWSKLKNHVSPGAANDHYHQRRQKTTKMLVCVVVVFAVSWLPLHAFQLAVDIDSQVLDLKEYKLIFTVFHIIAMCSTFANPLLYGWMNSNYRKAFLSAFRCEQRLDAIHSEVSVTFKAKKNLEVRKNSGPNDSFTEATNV
Summary of the method: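 hY2R stably expressed in CHO/dhfr− cells; membrane fraction prepared from cells disrupted in 10 mM NaHCO3, 5 mM EDTA buffer with protease inhibitors. Binding read as displacement of [125I]-PYY.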

[2] = target: T1, human Y2 receptor; experiment: Human Y2 Receptor G Protein Binding Assay (GBA), [35S]GTPγS; type: biochemical; conditions: EC50 of test compound/EC50 of PYY(3-36) (PYY3-36 taken as 1), hY2R/CHO membrane fraction
Summary of the method: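 Agonism measured as [35S]GTPγS binding, read by GF/C filtration and scintillation counting after 120 min at room temperature, using human Y2 membranes at 1 μg protein/mL in pH 7.4 Tris/MgCl2/NaCl/GDP buffer. Compound serially diluted 100 μM–1 nM; EC50 normalized to PYY(3-36) (ratio = compound/PYY).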

[3] = tested on: male C57EL/6J mice; experiment: 3-Days Continuous Subcutaneous Administration Test-1 (food intake suppressing activity); type: in vivo, mouse; conditions: 0.03 mg/kg/day, subcutaneous Alzet pump, food consumption over 3 days; relative to food intake suppression rate for PYY(3-36) (1 mg/kg/day) taken as 100%
Summary of the method: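 Male […] mice, 12-13 weeks, received compound at 0.03 mg/kg/day by subcutaneous osmotic pump (50% DMSO vehicle), housed singly with free food access. Food consumed over 3 days measured; suppression expressed relative to PYY(3-36) (1 mg/kg/day) set as 100%.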

Row | Substance | RBA IC50 Ratio [1] | GBA EC50 Ratio [2] | food intake suppression rate (%) [3] [%]
1 | Ac-[D-Hyp24, Iva25,28, Pya(4)26, Cha27,36, Lys30, Aib31]-PYY(23-36) (Ac-S[dHyp][Iva][4Pal][Cha][Iva]NK[Aib]TRQR[Cha]-NH2; ends and bridges not checked) [compound No. 298] | 0.86 | 1.0 | 56
2 | Ac-[D-Hyp24, Iva25, Pya(4)26, Cha27,36, Aib28,31, Lys30]-PYY(23-36) (Ac-S[dHyp][Iva][4Pal][Cha][Aib]NK[Aib]TRQR[Cha]-NH2; SMILES CC[C@](C)(NC(=O)[C@H]1C[C@H](O)CN1C(=O)[C@H](CO)NC(C)=O)C(=O)N[C@@H](Cc1ccncc1)C(=O)N[C@@H](CC1CCCCC1)C(=O)NC(C)(C)C(=O)N[C@@H](CC(N)=O)C(=O)N[C@@H](CCCCN)C(=O)NC(C)(C)C(=O)N[C@H](C(=O)N[C@@H](CCCNC(=N)N)C(=O)N[C@@H](CCC(N)=O)C(=O)N[C@@H](CCCNC(=N)N)C(=O)N[C@@H](CC1CCCCC1)C(N)=O)[C@@H](C)O) [compound No. 297] | 1.5 | 1.4 | 45
3 | Ac-[D-Hyp24, Iva25, Pya(4)26, Cha27,36, Leu(Me)28, Lys30, Aib31]-PYY(23-36) (Ac-S[dHyp][Iva][4Pal][Cha][tBuAla]NK[Aib]TRQR[Cha]-NH2; SMILES CC[C@](C)(NC(=O)[C@H]1C[C@H](O)CN1C(=O)[C@H](CO)NC(C)=O)C(=O)N[C@@H](Cc1ccncc1)C(=O)N[C@@H](CC1CCCCC1)C(=O)N[C@@H](CC(C)(C)C)C(=O)N[C@@H](CC(N)=O)C(=O)N[C@@H](CCCCN)C(=O)NC(C)(C)C(=O)N[C@H](C(=O)N[C@@H](CCCNC(=N)N)C(=O)N[C@@H](CCC(N)=O)C(=O)N[C@@H](CCCNC(=N)N)C(=O)N[C@@H](CC1CCCCC1)C(N)=O)[C@@H](C)O) [compound No. 335] | 0.97 | 1.5 | 27
4 | Ac-[D-Iva24, Pya(4)26, Cha27,36, Aib28,31, Lys30]-PYY(23-36) (Ac-S[dIva]R[4Pal][Cha][Aib]NK[Aib]TRQR[Cha]-NH2; SMILES CC[C@@](C)(NC(=O)[C@H](CO)NC(C)=O)C(=O)N[C@@H](CCCNC(=N)N)C(=O)N[C@@H](Cc1ccncc1)C(=O)N[C@@H](CC1CCCCC1)C(=O)NC(C)(C)C(=O)N[C@@H](CC(N)=O)C(=O)N[C@@H](CCCCN)C(=O)NC(C)(C)C(=O)N[C@H](C(=O)N[C@@H](CCCNC(=N)N)C(=O)N[C@@H](CCC(N)=O)C(=O)N[C@@H](CCCNC(=N)N)C(=O)N[C@@H](CC1CCCCC1)C(N)=O)[C@@H](C)O) [compound No. 242] | 0.39 | 1.3 | 25
5 | Ac-[D-Pro24, Abu26, Cha27,36, Aib28,31, Lys30]-PYY(23-36) (Ac-S[dP]R[Abu][Cha][Aib]NK[Aib]TRQR[Cha]-NH2; SMILES CC[C@H](NC(=O)[C@H](CCCNC(=N)N)NC(=O)[C@H]1CCCN1C(=O)[C@H](CO)NC(C)=O)C(=O)N[C@@H](CC1CCCCC1)C(=O)NC(C)(C)C(=O)N[C@@H](CC(N)=O)C(=O)N[C@@H](CCCCN)C(=O)NC(C)(C)C(=O)N[C@H](C(=O)N[C@@H](CCCNC(=N)N)C(=O)N[C@@H](CCC(N)=O)C(=O)N[C@@H](CCCNC(=N)N)C(=O)N[C@@H](CC1CCCCC1)C(N)=O)[C@@H](C)O) [compound No. 320] | 2.3 | 0.98 | 18
6 | Ac-[D-Pro24, Ala(4Pip)25, Pya(4)26, Cha27,36, Aib28,31, Lys30]-PYY(23-36) [compound No. 312] (Ac-S[dP][Ala(piperidin-4-yl)][4Pal][Cha][Aib]NK[Aib]TRQR[Cha]-NH2; SMILES CC(=O)N[C@@H](CO)C(=O)N1CCC[C@@H]1C(=O)N[C@@H](CC1CCNCC1)C(=O)N[C@@H](Cc1ccncc1)C(=O)N[C@@H](CC1CCCCC1)C(=O)NC(C)(C)C(=O)N[C@@H](CC(N)=O)C(=O)N[C@@H](CCCCN)C(=O)NC(C)(C)C(=O)N[C@H](C(=O)N[C@@H](CCCNC(=N)N)C(=O)N[C@@H](CCC(N)=O)C(=O)N[C@@H](CCCNC(=N)N)C(=O)N[C@@H](CC1CCCCC1)C(N)=O)[C@@H](C)O) | 4.3 | 5.8 | 10
7 | Ac-[D-Pro24, Ala(4Pip)26, Cha27,36, Aib28,31, Lys30]-PYY(23-36) (Ac-S[dP]R[Ala(piperidin-4-yl)][Cha][Aib]NK[Aib]TRQR[Cha]-NH2; SMILES CC(=O)N[C@@H](CO)C(=O)N1CCC[C@@H]1C(=O)N[C@@H](CCCNC(=N)N)C(=O)N[C@@H](CC1CCNCC1)C(=O)N[C@@H](CC1CCCCC1)C(=O)NC(C)(C)C(=O)N[C@@H](CC(N)=O)C(=O)N[C@@H](CCCCN)C(=O)NC(C)(C)C(=O)N[C@H](C(=O)N[C@@H](CCCNC(=N)N)C(=O)N[C@@H](CCC(N)=O)C(=O)N[C@@H](CCCNC(=N)N)C(=O)N[C@@H](CC1CCCCC1)C(N)=O)[C@@H](C)O) [compound No. 310] | 1.2 | 1.5 | 12
8 | Ac-[D-Pro24, Arg(Me)25,30, Pya(4)26, Cha27,36, Aib28,31]-PYY(23-36) (Ac-S[dP][Arg(Me)][4Pal][Cha][Aib]N[Arg(Me)][Aib]TRQR[Cha]-NH2; SMILES CNC(=N)NCCC[C@H](NC(=O)[C@H](CC(N)=O)NC(=O)C(C)(C)NC(=O)[C@H](CC1CCCCC1)NC(=O)[C@H](Cc1ccncc1)NC(=O)[C@H](CCCNC(=N)NC)NC(=O)[C@H]1CCCN1C(=O)[C@H](CO)NC(C)=O)C(=O)NC(C)(C)C(=O)N[C@H](C(=O)N[C@@H](CCCNC(=N)N)C(=O)N[C@@H](CCC(N)=O)C(=O)N[C@@H](CCCNC(=N)N)C(=O)N[C@@H](CC1CCCCC1)C(N)=O)[C@@H](C)O) [compound No. 315] | 1.5 | 1.5 | 45
9 | Ac-[D-Pro24, Arg(Me)25, Pya(4)26, Cha27,36, Aib28,31, Lys30]-PYY(23-36) [compound No. 319] | 1.1 | 1.3 | 40
10 | Ac-[D-Pro24, Iva25,28, Pya(4)26, Cha27,36, Lys30, Aib31]-PYY(23-36) (Ac-S[dP][Iva][4Pal][Cha][Iva]NK[Aib]TRQR[Cha]-NH2; SMILES CC[C@](C)(NC(=O)[C@H](CC1CCCCC1)NC(=O)[C@H](Cc1ccncc1)NC(=O)[C@](C)(CC)NC(=O)[C@H]1CCCN1C(=O)[C@H](CO)NC(C)=O)C(=O)N[C@@H](CC(N)=O)C(=O)N[C@@H](CCCCN)C(=O)NC(C)(C)C(=O)N[C@H](C(=O)N[C@@H](CCCNC(=N)N)C(=O)N[C@@H](CCC(N)=O)C(=O)N[C@@H](CCCNC(=N)N)C(=O)N[C@@H](CC1CCCCC1)C(N)=O)[C@@H](C)O) [compound No. 296] | 1.1 | 1.0 | 36
11 | Ac-[D-Pro24, Iva25, Pya(4)26, Cha27,36, Aib28,31, Arg(Me)30]-PYY(23-36) (Ac-S[dP][Iva][4Pal][Cha][Aib]N[Arg(Me)][Aib]TRQR[Cha]-NH2) [compound No. 316] | 2.4 | 1.7 | 29
12 | Ac-[D-Pro24, Iva25, Pya(4)26, Cha27,36, Aib28,31, Har30]-PYY(23-36) (Ac-S[dP][Iva][4Pal][Cha][Aib]N[hArg][Aib]TRQR[Cha]-NH2; SMILES CC[C@](C)(NC(=O)[C@H]1CCCN1C(=O)[C@H](CO)NC(C)=O)C(=O)N[C@@H](Cc1ccncc1)C(=O)N[C@@H](CC1CCCCC1)C(=O)NC(C)(C)C(=O)N[C@@H](CC(N)=O)C(=O)N[C@@H](CCCCNC(=N)N)C(=O)NC(C)(C)C(=O)N[C@H](C(=O)N[C@@H](CCCNC(=N)N)C(=O)N[C@@H](CCC(N)=O)C(=O)N[C@@H](CCCNC(=N)N)C(=O)N[C@@H](CC1CCCCC1)C(N)=O)[C@@H](C)O) [compound No. 317] | 0.65 | 1.0 | 49
